Test results: PMC9117670, “Structural basis for inhibition of the Cation-chloride cotransporter NKCC1 by the diuretic drug bumetanide” (Nature Communications, 2022)
Positions count from the first letter of the chain named. Names and notes keep the numbering of the source.

Target: the molecule itself
Assay: cryo-EM structure; single-particle cryo-EM with bumetanide; low [Cl-] buffer: 20 mM HEPES pH 7.4, 50 mM Na2SO4, 25 mM K2SO4, 5 mM NaCl, 0.06% digitonin, bumetanide to 500 uM

B1: NKCC1iii (full-length human NKCC1 with K289N, A492E and L671C mutations) (natural protein, UniProt P55011 1-1212, looked up)
chain: MEPRPTAPSSGAPGLAGVGETPSAAALAAARVELPGTAVPSVPEDAAPASRDGGGVRDEGPAAAGDGLGRPLGPTPSQSRFQVDLVSENAGRAAAAAAAAAAAAAAAGAGAGAKQTPADGEASGESEPAKGSEEAKGRFRVNFVDPAASSSAEDSLSDAAGVGVDGPNVSFQNGGDTVLSEGSSLHSGGGGGSGHHQHYYYDTHTNTYYLRTFGHNTMDAVPRIDHYRHTAAQLGEKLLRPSLAELHDELEKEPFEDGFANGEESTPTRDAVVTYTAESKGVVKFGWINGVLVRCMLNIWGVMLFIRLSWIVGQAGIGLSVLVIMMATVVTTITGLSTSAIATNGFVRGGGAYYLISRSLGPEFGGAIGLIFAFANAVAVAMYVVGFAETVVELLKEHSILMIDEINDIRIIGAITVVILLGISVAGMEWEAKAQIVLLVILLLAIGDFVIGTFIPLESKKPKGFFGYKSEIFNENFGPDFREEETFFSVFEIFFPAATGILAGANISGDLADPQSAIPKGTLLAILITTLVYVGIAVSVGSCVVRDATGNVNDTIVTELTNCTSAACKLNFDFSSCESSPCSYGLMNNFQVMSMVSGFTPLISAGIFSATLSSALASLVSAPKIFQALCKDNIYPAFQMFAKGYGKNNEPLRGYILTFLIALGFILIAECNVIAPIISNFFLASYALINFSVFHASLAKSPGWRPAFKYYNMWISLLGAILCCIVMFVINWWAALLTYVIVLGLYIYVTYKKPDVNWGSSTQALTYLNALQHSIRLSGVEDHVKNFRPQCLVMTGAPNSRPALLHLVHDFTKNVGLMICGHVHMGPRRQAMKEMSIDQAKYQRWLIKNKMKAFYAPVHADDLREGAQYLMQAAGLGRMKPNTLVLGFKKDWLQADMRDVDMYINLFHDAFDIQYGVVVIRLKEGLDISHLQGQEELLSSQEKSPGTKDVVVSVEYSKKSDLDTSKPLSEKPITHKVEEEDGKTATQPLLKKESKGPIVPLNVADQKLLEASTQFQKKQGKNTIDVWWLFDDGGLTLLIPYLLTTKKKWKDCKIRVFIGGKINRIDHDRRAMATLLSKFRIDFSDIMVLGDINTKPKKENIIAFEEIIEPYRLHEDDKEQDIADKMKEDEPWRITDNELELYKTKTYRQIRLNELLKEHSSTANIIVMSLPVARKGAVSSALYMAWLEALSKDLPPILLVRGNHQSVLTFYS
notes: Human Na-K-2Cl cotransporter NKCC1, full length, with K289N, A492E and L671C; MBP followed by a TEV site was fused immediately before the N-terminus and removed with TEV protease before size exclusion and cryo-EM; Residues 927-1021 are not defined in the model; also called Lys289Asn/Ala492Glu/Leu671Cys NKCC1 transporter; NKCCiii; source: HEK293S GnTI-/- cells (BacMam system), purified (amylose …)
  stoichiometry N: 2

B2: NKCC1ii (full-length human NKCC1 with K289N and A492E mutations) (natural protein, UniProt P55011 1-1212, looked up)
chain: B1 chain with C671L
notes: Human Na-K-2Cl cotransporter NKCC1, full length, with K289N and A492E; MBP followed by a TEV site was fused immediately before the N-terminus and removed with TEV protease before size exclusion and cryo-EM; also called NKCCii; source: HEK293S GnTI-/- cells (BacMam system), purified (amylose resin, TEV protease, Superose 6) in digitonin; not shown: MBP, N-terminal, cleaved
  stoichiometry N: 2
